Experimental findings from article PMC9769622, “ATPase Activity of Bacillus subtilis RecA Affects the Dynamic Formation of RecA Filaments at DNA Double Strand Breaks” (mSphere, 2022) are described below.

Experiment [1] has as its target T1, RecA (RecAWT) (Bacillus subtilis, UniProt P16971).
T1 construct: 6xHis tag kept (text says C-terminal, also written 6xHis-RecA); pET28a, E. coli BL21(DE3); about 38 kDa monomer
T1 sequence (P16971 11-348): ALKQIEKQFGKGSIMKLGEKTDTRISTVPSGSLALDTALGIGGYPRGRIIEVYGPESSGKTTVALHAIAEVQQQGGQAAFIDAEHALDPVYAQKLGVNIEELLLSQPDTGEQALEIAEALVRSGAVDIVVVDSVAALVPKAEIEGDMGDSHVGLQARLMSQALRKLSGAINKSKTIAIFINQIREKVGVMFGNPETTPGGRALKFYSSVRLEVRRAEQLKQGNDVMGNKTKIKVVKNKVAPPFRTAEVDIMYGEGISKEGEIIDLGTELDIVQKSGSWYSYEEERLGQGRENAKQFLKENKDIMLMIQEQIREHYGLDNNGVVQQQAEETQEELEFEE
The experiment in a line: malachite green phosphate release; kinetic analysis of ATP binding. The note with it: with salmon sperm ssDNA, Mg2+, pH 7.4, 37 C. Type of experiment: biochemical.

For experiment [2], the target named is Bacillus subtilis RecA, wild type, hexa-histidine fusion protein (B. subtilis) (UniProt P16971). The experiment in a line: mass photometry; protein alone; 2 uL sample added to 18 uL PBS pH 7.4, room temperature; 137 mM salt; poly-L-lysine coated coverslips.
In experiment [3] the target is Bacillus subtilis RecA K70R Walker A mutant, hexa-histidine fusion protein (B. subtilis) (UniProt P16971). The experiment in a line: mass photometry; protein mixed with 32 nt ssDNA oligonucleotides and 1 mmol/l ATP, incubated 10 min at 37°C; measured in PBS pH 7.4.
For experiment [4] the target is unchanged. The experiment in a line: mass photometry; protein alone; 2 uL sample added to 18 uL PBS pH 7.4, room temperature; 137 mM salt; poly-L-lysine coated coverslips.
Experiment [5] concerns the target Bacillus subtilis RecA K70A Walker A mutant, hexa-histidine fusion protein (B. subtilis) (UniProt P16971). The description is as above.

Regarding `Nc1ncnc2c1ncn2[C@@H]1O[C@H](COP(=O)(O)OP(=O)(O)OP(=O)(O)O)[C@@H](O)[C@H]1O` [ATP], the “malachite green phosphate release; kinetic analysis of ATP binding” value in experiment [1] was “activity of wild type RecA comparable to that of E. coli RecA”.
As a reminder, the stoichiometry N is the number of molecules, sites or subunits per partner or assembly. With “Bacillus subtilis RecA, wild type, hexa-histidine fusion protein (from UniProt P16971 11-348) (natural protein)”, the stoichiometry N in experiment [2] came out at 2.
Take “Bacillus subtilis RecA K70R Walker A mutant, hexa-histidine fusion protein (from UniProt P16971 11-348) (natural protein)”: the stoichiometry N in experiment [3] and in experiment [4] was 2 in each case.
With “Bacillus subtilis RecA K70A Walker A mutant, hexa-histidine fusion protein (from UniProt P16971 11-348) (natural protein)”, the stoichiometry N in experiment [5] worked out at 2.
